Reference: patent US20100298217A1 (published 2010)

How the values were obtained:
[1] = target: T1, mouse CSF-1R C432S/C439S mutant expressed on M-/- macrophages (M-/-.C432/439SCSF-1R cells) (mouse, UniProt P09581 20-977); assay: cell-based or functional assay
T1 sequence: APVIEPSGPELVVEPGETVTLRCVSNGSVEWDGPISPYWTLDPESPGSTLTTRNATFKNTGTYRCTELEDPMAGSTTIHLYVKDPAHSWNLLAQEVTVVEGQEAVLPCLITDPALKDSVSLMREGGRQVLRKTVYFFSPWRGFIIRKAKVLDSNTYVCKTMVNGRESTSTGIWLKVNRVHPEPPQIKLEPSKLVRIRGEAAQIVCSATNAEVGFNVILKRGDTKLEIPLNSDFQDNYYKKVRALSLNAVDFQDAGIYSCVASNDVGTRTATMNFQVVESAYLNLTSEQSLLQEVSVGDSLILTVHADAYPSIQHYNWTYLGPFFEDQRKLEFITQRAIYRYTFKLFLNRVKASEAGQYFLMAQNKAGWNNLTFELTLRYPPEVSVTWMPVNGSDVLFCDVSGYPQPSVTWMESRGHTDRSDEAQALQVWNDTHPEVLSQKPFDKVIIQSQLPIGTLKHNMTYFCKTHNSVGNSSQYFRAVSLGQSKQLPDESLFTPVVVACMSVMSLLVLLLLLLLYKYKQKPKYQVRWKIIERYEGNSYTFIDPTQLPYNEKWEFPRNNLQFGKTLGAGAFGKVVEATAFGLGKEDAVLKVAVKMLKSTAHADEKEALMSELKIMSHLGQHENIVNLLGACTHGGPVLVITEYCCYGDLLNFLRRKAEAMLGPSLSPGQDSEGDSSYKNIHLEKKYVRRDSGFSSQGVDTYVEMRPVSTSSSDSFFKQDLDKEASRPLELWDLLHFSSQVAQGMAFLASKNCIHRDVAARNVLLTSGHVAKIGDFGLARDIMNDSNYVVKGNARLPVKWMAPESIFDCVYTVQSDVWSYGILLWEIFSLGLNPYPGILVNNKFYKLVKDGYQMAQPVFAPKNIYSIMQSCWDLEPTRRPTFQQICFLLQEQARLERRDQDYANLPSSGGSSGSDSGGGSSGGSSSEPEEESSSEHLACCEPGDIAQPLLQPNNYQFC

[2] = target: T1, mouse CSF-1R C432S/C439S mutant …; assay: CSF-1 binding to upregulated cells carrying the receptor, FIG. 14

fold decrease in CSF-1-induced tyrosine phosphorylation and ubiquitination of cells starved of CSF-1 for 24 h [1]: ~5 fold
maximum CSF-1 binding relative to WT CSF-1R [2]: ~70%
B1: purified human recombinant CSF-1 (ligand, UniProt P09603 36-253, looked up)
chain: SEYCSHMIGSGHLQSLQRLIDSQMETSCQITFEFVDQEQLKDPVCYLKKAFLLVQDIMEDTMRFRDNTPNAIAIVQLQELSLRLKSCFTKDYEEHDKACVRTFYETPLQLLEKVKNVFNETKNLLDKDWNIFSKNCNNSFAECSSQDVVTKPDCNCLYPKAIPSSDPASVSPHQPLAPSMAPVAGLTWEDSEGTEGSSLLPGEQPLHTVDPGSAKQRP
notes: also called human CSF-1; colony stimulating factor-1
